The record followed here is the RNAGym collection of RNA variant scans (doi:10.7554/elife.80360).

Sequences and labels used below:
B1: HDV Ribozyme (parent)
chain: GGCCGGCAUGGUCCCAGCCUCCUCGCUGGCGCCGGCUGGGCAACAUUCCGAGGGGACCGUCCCCUCGGUAAUGGCGAAUGGGACCCA

The variants in the data set derive from B1. Kind of data set: self-cleavage, relative activity (ratio to wild type); higher = more cleavage; co-transcriptional.
Consider GGCCGGCAUGGUCCCAGCCUCCUCGCUGUCGCCGGCUGGGCAACAUUCCGAGGGGACCGUCCCCUCGGUAAUGGCGAAUGGGACACA [G29U C85A], for which the self-cleavage came to 0.0941.

Consider GGCCGGCAUGGUCCCAGCCUCCUCGCAGGCGCCGGCUGGGCAACAUUCCGAGGGGACCGUCCCAUCGGUAAUGGCGAAUGGGACCCA [U27A C64A], for which the self-cleavage came to 0.703.

Turning to GGCCGGCAUGGUCCCAGCCUCCUCGCUGGCGCCGACUGGGCAACAGUCCGAGGGGACCGUCCCCUCGGUAAUGGCGAAUGGGACCCA [G35A U46G], the self-cleavage amounted to 0.

Turning to GGCCGGCACGGUCCCAGCCUCCUCGCUGGCGCCGGCUGGGCAACAGUCCGAGGGGACCGUCCCCUCGGUAAUGGCGAAUGGGACCCA [U9C U46G], the self-cleavage came to 1.19.

Take GGCCGGCAUGGUCCCAGCCUCCUCGCUGGCGCCGGCUGGGCAACAUUCCGAGGGCAGCGUCCCCUCGGUAAUGGCGAAUGGGACCCA [G55C C57G]: the self-cleavage is 1.14.

As for GGCCGGCAUGUGCCCAGCCUCCUCGCUGGCGCCGGCUGGGCAACAUUCCGAGGGGACCGUCCCCUCGGUAAUGGCGAAUGGGACCCA [G11U U12G], the self-cleavage was 0.199.

As for GGCCGGCAUGGUCCCAGCCUCCUCGCUGGCGCCGGCUGGGCAACAUUCCGAGGGCACCGUCCCCUUGGUAAUGGCGAAUGGGACCCA [G55C C66U], the self-cleavage stood at 0.983.

In the case of GGCCGGCAUGGUCGCAGCCUCCUCGCUGGCGCCAGCUGGGCAACAUUCCGAGGGGACCGUCCCCUCGGUAAUGGCGAAUGGGACCCA [C14G G34A], the self-cleavage turned out to be 0.

On to GGCCGGCAUGGUCCCAGCCUCCUCGCUGGCGACGGCUGGGCAACAUUCCGAGGGGACCCUCCCCUCGGUAAUGGCGAAUGGGACCCA [C32A G59C], for which the self-cleavage was 0.271.

For GGCCGGCAUGGUCCCAGCCACCUCGCUGGCGCCGGUUGGGCAACAUUCCGAGGGGACCGUCCCCUCGGUAAUGGCGAAUGGGACCCA [U20A C36U], the self-cleavage was 0.

Take GGCCGGCAUGGUCCCAGCCUCCUAGCUGGCGCCGGCUGGGCAACAUUCCGAGUGGACCGUCCCCUCGGUAAUGGCGAAUGGGACCCA [C24A G53U]: the self-cleavage was determined as 0.858.

In the case of GGCCGGCAUCGUCCCAGCCUCCUCGCUGGCGCCGGCUGGGCAACAUUCCGAGGGGACCGUCCCCUCGGUCAUGGCGAAUGGGACCCA [G10C A70C], the self-cleavage turned out to be 0.923.

For GGCCGACAUGGUCCCAGCAUCCUCGCUGGCGCCGGCUGGGCAACAUUCCGAGGGGACCGUCCCCUCGGUAAUGGCGAAUGGGACCCA [G6A C19A], the self-cleavage is 0.0346.

In the case of GGCCGGCAUGGUCCCAGCCUCCUCGCUCGCGCCGGCUGUGCAACAUUCCGAGGGGACCGUCCCCUCGGUAAUGGCGAAUGGGACCCA [G28C G39U], the self-cleavage is 0.125.

Consider GACCGGCAUGGUCCCAGCCUCCUCGCUGGCGCCGGCUGGGCAACAUUCCGAGGGGACCGUCCCCUCGGUAUUGGCGAAUGGGACCCA [G2A A71U], for which the self-cleavage worked out at 0.106.

For the variant GGCCGGCAUGGUCCCAGCCUCCUCGCUGGCUCCGGCUGGGAAACAUUCCGAGGGGACCGUCCCCUCGGUAAUGGCGAAUGGGACCCA [G31U C41A], the self-cleavage was 0.136.

In the case of GGCCGGCAUGGUCCCAGCCUCCUCGCUGGCGCCGGCUGGGCAACAUUGCGAGGGGACCGUCCCCUCGGUAAUGGCGAUUGGGACCCA [C48G A78U], the self-cleavage came out at 0.142.

As to GGCCGCCAUGGUCCCAGCCUCCUCGCUGGCGCCGGCUGGGCAUCAUUCCGAGGGGACCGUCCCCUCGGUAAUGGCGAAUGGGACCCA [G6C A43U], the self-cleavage worked out at 0.0594.

Consider UGCCGGCAUGGUCCCAGCCUCCUCGCUGGCGCCUGCUGGGCAACAUUCCGAGGGGACCGUCCCCUCGGUAAUGGCGAAUGGGACCCA [G1U G34U], for which the self-cleavage was determined as 0.215.

On to GGCCGGCAUGGUCCCAGCCUCCUCGCUGGCGCCGGCUGGGCAAUAUUCCGAGGGGACCGUCGCCUCGGUAAUGGCGAAUGGGACCCA [C44U C62G], for which the self-cleavage was 0.464.

For the variant GGCCGGCAUGUUCCCAGCCUCCUCGCUGGGGCCGGCUGGGCAACAUUCCGAGGGGACCGUCCCCUCGGUAAUGGCGAAUGGGACCCA [G11U C30G], the self-cleavage was found to be 0.0767.

On to GGCCGGCAUGGUCCCAGCCUCCUCGCUGGCGCCGGCUGGGCAACAUUCCGAGGGGACCUUCCCCUCGGUAAUGGCGAAUGGGACCCG [G59U A87G], for which the self-cleavage came out at 0.993.

In the case of GGCCGGCAUGGUCCCAGCCUCCUCGCUGGCGCCGGCUGGGCAACAUUCCGAGGGGACGGUCCCCUCGGUAAUGGCGAAUGGGACCGA [C58G C86G], the self-cleavage was 0.969.

On to GGCCGGCAUGGUCCCAGCCUCCUCGCUGGCGCCGGCUGGGCAACAUUCCGAGGGGACCGGCCCCUCGGUAAUGGCGACUGGGACCCA [U60G A78C], for which the self-cleavage stood at 0.151.

GGCCGGCAUGGUCCCAGCCUCCUCGCUGGCGCCGGCUGGGCAACAUUCCGAGGGGACCGUCCCCUCGGUAUUGGCGAAUGGGUCCCA [A71U A83U]: the self-cleavage worked out at 0.426.

As to GGCCGGCAUGGUCACAGCCUCCUCGCUGGCGCCGGCUGGGCAACAUUCCAAGGGGACCGUCCCCUCGGUAAUGGCGAAUGGGACCCA [C14A G50A], the self-cleavage worked out at 0.736.

Consider GGCCGGCAUGGUCCCAGACUCCUCGCUGGCGCCGGCUGGGCAACAUUCCGAGGGGACCGUCCCCUCGGUAAUAGCGAAUGGGACCCA [C18A G73A], for which the self-cleavage was 0.0755.

Take GGCCGGCAUGGUCCCAGCCACCUCGCUGGCGCCGGCUGGGCAACAUGCCGAGGGGACCGUCCCCUCGGUAAUGGCGAAUGGGACCCA [U20A U47G]: the self-cleavage is 0.

Take GGCCGGCAUGGUCCCAGCCUCCUCGCUGGCGCCGGCUGGGCAACAUUGCGAGGGGACCGUCCCCUAGGUAAUGGCGAAUGGGACCCA [C48G C66A]: the self-cleavage came out at 0.898.

As for GGCCGGCAUGGUCCCAGCCUCCUCGCUGGCGCCGGCUGGGCAACAUUCCGAGGGGACGGUCCCCUCGGUAAUGGCGAAUGGUACCCA [C58G G82U], the self-cleavage was 0.534.

Take GGCCGGCAUGGUCCCAGCCUCCUCGCUGGCGCCGGCUGGGCAACAUUCCGAGGGGACUGUCCCCUCGGAAAUGGCGAAUGGGACCCA [C58U U69A]: the self-cleavage is 0.89.

On to GGCCGGCAUGGUCCCAGCCUCCUCGCUGGCGCCGGCUGGGCAACAUUCCGAGGGGACCGUCCCCUCGGUAAUGGCAUAUGGGACCCA [G76A A77U], for which the self-cleavage was 0.76.
